Results: US9644034B2, “Anti-RSPO2 antibodies and uses thereof” (OncoMed Pharmaceuticals, Inc., priority 2011, dated 2017)
Residue numbers refer to the chain shown, from its start.

Assays:
[1] = test system: PN31 pancreatic tumor cells; assay: PN31 pancreatic tumor xenograft growth in NOD/SCID mice; type: in vivo; details: vs control; antibodies 15 mg/kg once a week, gemcitabine once a week, intraperitoneal
Protocol: Dissociated PN31 pancreatic tumor cells (1×10^5cells) were injected subcutaneously into the flanks of 6-8 week old NOD/SCID mice. Tumors were allowed to grow for 61 days until they reached an average volume of 120 mm^3. The mice were randomized (n=10 per group) and treated with anti-RSPO1 antibody 89M5, anti-RSPO2 antibody 130M23, gemcitabine, a combination of 89M5 and gemcitabine, a combination of 130M23 and gemcitabine, or control antibody 1B7.11. Antibodies were dosed at 15 mg/kg once a week, and gemcitabine was dosed at […] once a week. Administration of the antibodies and gemcitabine was performed via injection into the intraperitoneal cavity. Tumor growth was monitored and tumor volumes were measured with electronic calipers at specific time points. Data are expressed as mean±S.E.M.

[2] = test system: PN7 tumors; assay: Serial transplantation of cells from treated PN7 tumors (tumorigenicity); type: in vivo, NOD-SCID mice; details: 90 cells injected, 40 days growth with no treatment; vs control antibody
Protocol: The PN7 tumors described above were processed to yield single cell suspensions. Mouse cells were depleted from the cell mixtures using biotinylated anti-H2K^d and anti-CD45 antibodies and streptavidin-conjugated magnetic beads. The remaining human tumor cells were serially transplanted into a new cohort of mice. 90 tumor cells from each treatment group were injected into the flanks of NOD-SCID mice (n=10 mice per group). Tumors were allowed to grow for 40 days with no treatment and tumor volumes were measured with electronic calipers.

[3] = target: T1, binding of RSPO1 to LGR5 (Homo sapiens, UniProt Q2MKA7); assay: FACS: blocking of soluble RSPO1-Fc binding to LGR5 on HEK-293 cells; details: RSPO1-Fc 10 μg/ml, antibodies 10 μg/ml
T1 construct: full-length human RSPO1, RSPO2, RSPO3 and RSPO4 were ligated in-frame to a human Fc region; made in house; host or cells: RSPO1-Fc: insect cells (baculovirus); LGR5 construct: transiently transfected HEK-293
Protocol: HEK-293 cells were transiently transfected with the FLAG-LGR5-CD4TM-GFP construct (previously described in Example 2). After 48 hours, transfected cells were suspended in ice cold PBS containing 2% FBS and heparin and incubated on ice in the presence of RSPO1-Fc protein (10 μg/ml) and antibodies 89M2, 89M4, 89M5, 89M7, 89M19 or 89M25 (10 μg/ml). A second incubation with 100 μl PE-conjugated anti-human Fc secondary antibody was performed to detect cells bound by the RSPO1-Fc fusion protein. The cells were analyzed on a FACSCalibur instrument (BD Biosciences, San Jose, Calif.) and the data was processed using FlowJo software.

[4] = target: T2, human RSPO1 (Homo sapiens, UniProt Q2MKA7); assay: FACS screening of hybridoma supernatants on HEK-293 cells expressing FLAG-RSPO1furin-CD4TM-GFP; type: binding
T2 construct: followed by the two furin-like domains of RSPO1 (aa 34-135); expressed in transfected cells; host or cells: HEK-293
From the text: Antibodies were generated against recombinant human RSPO1 protein amino acids 31-263 (R&D Systems, Minneapolis, Minn.). Mice (n=3) were immunized with RSPO1 protein using standard techniques. Sera from individual mice were screened against RSPO1 approximately 70 days after initial immunization using FACS analysis. The animal with the highest antibody titer was selected for final antigen boost after which spleen cells were isolated for hybridoma production. SP2/0 cells were used as fusion partners for the mouse spleen cells. Hybridoma cells were plated at 1 cell per well in 96 well plates, and the supernatants were screened against human RSPO1 by FACS analysis.
For FACS screening of anti-RSPO1 antibodies a chimeric fusion protein enabling cell surface expression of the N-terminal furin-like domains of human RSPO1 was constructed.
HEK-293 cells were transfected with FLAG-RSPOlfurin-CD4TM-GFP. After 48 hours, transfected cells were suspended in ice cold PBS containing 2% FBS and heparin and incubated on ice in the presence of 50 μl of hybridoma supernatants for 30 minutes. A second incubation with 100 μl PE-conjugated […] secondary antibody was performed to detect cells bound by antibody. Cells were incubated with an anti-FLAG antibody (Sigma-Aldrich, St. Louis, Mo.) as a positive control and an anti-PE antibody as a negative control. The cells were analyzed on a FACSCalibur instrument (BD Biosciences, San Jose, Calif.) and the data was processed using FlowJo software.

[5] = test system: RSPO1-induced β-catenin signaling; assay: TOPflash luciferase assay in HEK-293 cells, Wnt3a plus human RSPO1; type: cell-based; details: Wnt3a 5 ng/ml, RSPO1 10 ng/ml; antibodies 10 to 0.625 μg/ml
Protocol: HEK-293 cells were transfected with a 6×TCF-luciferase reporter vector (TOPflash, Millipore, Billerica, Mass.). After 24-48 hrs, the transfected HEK-293 cells were incubated with a combination of Wnt3a (5 ng/ml) and human RSPO1 (10 ng/ml, R&D BioSystems) in the presence of anti-RSPO1 antibodies 89M2, 89M4, 89M5, 89M7, 89M19, and 89M25, or 2 irrelevant control antibodies 254M14 and 254M26 (2-fold dilutions at 10 μg/ml to 0.625 μg/ml). The cells were incubated for 16 hours and luciferase activity was measured using Steady-Glo® Luciferase Assay System according to the manufacturer's instructions (Promega, Madison, Wis.).

[6] = test system: RSPO; assay: FACS RSPO binding activity of conditioned media from HEK-293 cells cotransfected with candidate humanized chains; details: conditioned media of cotransfected HEK-293 cells
Protocol: The functionality of each candidate variant humanized heavy chain and light chain was tested by cotransfection into mammalian cells. Each candidate humanized heavy chain described above was cotransfected into HEK-293 cells with the murine light chain cDNA, and conditioned media was assayed by FACS for RSPO binding activity. […] The 89M5-H2 humanized heavy chain was cotransfected into HEK-293 cells with each of the candidate humanized light chains, and conditioned media was again assayed for antigen binding by FACS. […] The 130M23-H1 humanized heavy chain was cotransfected into HEK-293 cells with each of the candidate humanized light chains, and conditioned media was again assayed for antigen binding by FACS.

[7] = test system: PN7 pancreatic tumor cells; assay: PN7 pancreatic tumor xenograft growth in NOD/SCID mice; type: in vivo; details: vs control antibody; 130M23 10 mg/kg, 18R5 20 mg/kg, gemcitabine once a week, intraperitoneal
Protocol: Dissociated PN7 pancreatic tumor cells (1×10^5cells) were injected subcutaneously into the flanks of 6-8 week old NOD/SCID mice. Tumors were allowed to grow for 25 days until they reached an average volume of 130 mm^3. The mice were randomized (n=10 per group) and treated with anti-RSPO2 antibody 130M23, anti-FZD antibody 18R5, gemcitabine, a combination of 130M23 and gemcitabine, a combination of 18R5 and gemcitabine, a combination of 130M23 and 18R5, a combination of 130M23, 18R5 and gemcitabine, or control antibody 1B7.11. Anti-RSPO2 antibody 130M23 was dosed at 10 mg/kg once a week, anti-FZD antibody 18R5 was dosed at 20 mg/kg once a week, and gemcitabine was dosed at […] once a week. Administration of the antibodies and gemcitabine was performed via injection into the intraperitoneal cavity. Tumor growth was monitored and tumor volumes were measured with electronic calipers at specific time points. Data are expressed as mean±S.E.M. A parallel set of experiments included mice treated with a FZD8-Fc soluble receptor (10 mg/kg) in combination with gemcitabine and FZD8-Fc in combination with 130M23 and gemcitabine.

T2 sequence (Q2MKA7 34-135): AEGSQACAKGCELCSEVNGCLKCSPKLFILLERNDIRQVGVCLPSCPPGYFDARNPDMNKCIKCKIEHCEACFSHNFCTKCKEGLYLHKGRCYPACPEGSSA
T1 sequence (Q2MKA7 21-263): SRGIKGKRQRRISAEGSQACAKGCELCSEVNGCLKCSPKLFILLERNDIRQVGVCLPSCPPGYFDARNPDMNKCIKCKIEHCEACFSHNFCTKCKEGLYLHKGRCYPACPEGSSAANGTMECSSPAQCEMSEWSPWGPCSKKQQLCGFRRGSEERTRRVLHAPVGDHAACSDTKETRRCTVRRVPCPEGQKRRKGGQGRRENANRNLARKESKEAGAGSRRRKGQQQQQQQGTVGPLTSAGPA

Nc1ccn([C@@H]2O[C@H](CO)[C@@H](O)C2(F)F)c(=O)n1 [gemcitabine, reference compound]
reduction in tumor growth [1]: 49%
tumorigenicity of cells isolated from treated mice [2]: decrease in tumorigenicity

B1: 89M2: anti-RSPO1 monoclonal antibody; same heavy and light chain variable regions as 89M5 (antibody, V domains shown)
VH: EVQLQQSGPELVKPGASVKISCKTSGYTFTGYTMHWVRQSHGKTLEWIGGINPNNGGTTYNQNFKGKATLTVEKSSTTAYLELRSLTSEDSALYYCARKEFSDGYYFFAYWGQGTLVTVSA
VL: DIVMTQSHKFMSTSVGDRVNITCKASQDVIFAVAWYQQKPGQSPKLLIYWASTRHTGVPDRFTGSVSGTDYTLTISSVQAEDLALYYCQQHYSTPWTFGGGTKLEIK
blocking of binding of RSPO1 to LGR5 [3]: blocked
binding to RSPO1 (FACS) [4]: bound
blocking of RSPO1-induced β-catenin signaling [5]: blocked

B2: 89M4: anti-RSPO1 monoclonal antibody; same heavy and light chain variable regions as 89M5 (antibody, V domains shown)
VH: B1 VH
VL: B1 VL
blocking of binding of RSPO1 to LGR5 [3]: blocked
binding to RSPO1 (FACS) [4]: bound
blocking of RSPO1-induced β-catenin signaling [5]: blocked

B3: 130M23-H1: humanized 130M23 heavy chain variant (SEQ ID NO:70) (antibody)
heavy: EVQLVESGGGLVKPGGSLRLSCAASGFTFSSYAMSWVRQAPGKGLEWVSSISSGGSTYYPDSVKGRFTISRDNAKNSLYLQMNSLRAEDTAVYYCARGGDPGVYNGDYEDAMDYWGQGTTVTVSSASTKGPSVFPLAPCSRSTSESTAALGCLVKDYFPEPVTVSWNSGALTSGVHTFPAVLQSSGLYSLSSVVTVPSSNFGTQTYTCNVDHKPSNTKVDKTVERKCCVECPPCPAPPVAGPSVFLFPPKPKDTLMISRTPEVTCVVVDVSHEDPEVQFNWYVDGVEVHNAKTKPREEQFNSTFRVVSVLTVVHQDWLNGKEYKCKVSNKGLPAPIEKTISKTKGQPREPQVYTLPPSREEMTKNQVSLTCLVKGFYPSDIAVEWESNGQPENNYKTTPPMLDSDGSFFLYSKLTVDKSRWQQGNVFSCSVMHEALHNHYTQKSLSLSPGK
modifications: h130M23-H1L2 Heavy chain amino acid sequence
binding by FACS among candidate humanized chain variants [6]: most robust binding

B4: 18R5: anti-FZD antibody, Wnt pathway inhibitor (antibody, chains of the INN, looked up, V domains shown)
VH: EVQLVESGGGLVQPGGSLRLSCAASGFTFSHYTLSWVRQAPGKGLEWVSVISGDGSYTYYADSVKGRFTISSDNSKNTLYLQMNSLRAEDTAVYYCARNFIKYVFANWGQGTLVTVSS
VL: DIELTQPPSVSVAPGQTARISCSGDNIGSFYVHWYQQKPGQAPVLVIYDKSNRPSGIPERFSGSNSGNTATLTISGTQAEDEADYYCQSYANTLSLVFGGGTKLTVL
reduction in tumor growth [7]: approximately 55%
tumorigenicity of cells isolated from treated mice [2]: greatly decreased tumorigenicity

B5: 89M5-L2: humanized 89M5 light chain variant (SEQ ID NO:69) (protein)
light: DIQMTQSPSSLSASVGDRVTITCKASQDVIFAVAWYQQKPGKAPKLLIYWASTRHTGVPSRFSGSGSGTDYTLTISSLQPEDFATYYCQQHYSTPWTFGGGTKVEIKRTVAAPSVFIFPPSDEQLKSGTASVVCLLNNFYPREAKVQWKVDNALQSGNSQESVTEQDSKDSTYSLSNTLTLSKADYEKHKVYACEVTHQGLSSPVTKSFNRGEC
modifications: h89M5-H2L2 Light chain amino acid sequence
binding by FACS among candidate humanized chain variants [6]: most robust binding

B6: 130M23-L2: humanized 130M23 light chain variant (SEQ ID NO:71) (protein)
light: B5 light with I30S, F31S, Y71F, L78V, P80A, G100Q
modifications: h130M23-H1L2 Light chain amino acid sequence
binding by FACS among candidate humanized chain variants [6]: most robust binding

B7: 89M5-H2: humanized 89M5 heavy chain variant (SEQ ID NO:68) (antibody)
heavy: QVQLVQSGAEVKKPGASVKVSCKTSGYTFTGYTMHWVRQAPGQRLEWMGGINPNNGGTTYNQNFKGRVTITRDTSASTAYMELSSLRSEDTAVYYCARKEFSDGYYFFAYWGQGTLVTVSSASTKGPSVFPLAPCSRSTSESTAALGCLVKDYFPEPVTVSWNSGALTSGVHTFPAVLQSSGLYSLSSVVTVPSSNFGTQTYTCNVDHKPSNTKVDKTVERKCCVECPPCPAPPVAGPSVFLFPPKPKDTLMISRTPEVTCVVVDVSHEDPEVQFNWYVDGVEVHNAKTKPREEQFNSTFRVVSVLTVVHQDWLNGKEYKCKVSNKGLPAPIEKTISKTKGQPREPQVYTLPPSREEMTKNQVSLTCLVKGFYPSDIAVEWESNGQPENNYKTTPPMLDSDGSFFLYSKLTVDKSRWQQGNVFSCSVMHEALHNHYTQKSLSLSPGK
modifications: h89M5-H2L2 Heavy chain amino acid sequence
binding by FACS among candidate humanized chain variants [6]: most robust binding
